Experimental data published in paper PMC8324300, “CDK1 controls CHMP7-dependent nuclear envelope reformation” (eLife, 2021).

What was measured:
Conditions in all cases: both partners purified
[1] = molecular target: T1, recombinant CHMP7 (full length, wild type) (human, UniProt Q8WUX9 1-453); experiment: co-IP; purified CHMP7 or S3D/S441D with HA-LEM2^CT at 1:2 in TKD buffer, overnight at 4°C; CHMP7 captured on anti-CHMP7 Dynabeads; washes with 0.05% Tween-20; blots with anti-CHMP7 and anti-HA
T1 construct: CHMP7, human, full-length open reading frame; the TEV site cleaves at the 1st methionine; In the CDK1 experiments this is the sample incubated with CDK1:CyclinB1 without ATP; also called CHMP7 wildtype; WT; source: E. coli BL21(DE3), purified (Ni-NTA, TEV cleavage, Superdex 200, monomeric fractions); not shown: 2xHis6, N-terminal, cleaved; NusA, N-terminal, cleaved
T1 sequence (looked up): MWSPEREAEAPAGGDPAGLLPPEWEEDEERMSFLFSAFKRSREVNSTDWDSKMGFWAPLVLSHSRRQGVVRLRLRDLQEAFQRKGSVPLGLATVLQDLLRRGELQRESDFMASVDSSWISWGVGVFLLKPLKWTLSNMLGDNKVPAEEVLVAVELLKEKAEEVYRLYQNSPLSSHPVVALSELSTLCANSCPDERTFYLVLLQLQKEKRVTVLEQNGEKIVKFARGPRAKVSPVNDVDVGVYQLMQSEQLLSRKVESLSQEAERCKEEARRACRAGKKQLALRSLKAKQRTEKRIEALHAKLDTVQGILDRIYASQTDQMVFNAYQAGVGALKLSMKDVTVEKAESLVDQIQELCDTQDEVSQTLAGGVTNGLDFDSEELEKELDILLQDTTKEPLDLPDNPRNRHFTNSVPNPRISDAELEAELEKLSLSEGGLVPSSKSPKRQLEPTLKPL

[2] = molecular target: T2, recombinant CHMP7 S3D/S441D (human, UniProt Q8WUX9 1-453, S3D | S441D); experiment: co-sedimentation; 5 μM CHMP7 or mutant with 10 μM HA-LEM2^CT (one legend says equimolar) in TKD buffer (50 mM Tris HCl pH 8, 150 mM KCl, 1 mM DTT), room temperature for 2 hr; 22,000 x g for 40 min at 4°C; blots with anti-CHMP7 and anti-HA
T2 construct: CHMP7, human, full length with phosphomimetic residues at Ser3 and Ser441; source: E. coli BL21(DE3), purified (Ni-NTA, TEV cleavage, Superdex 200); not shown: 2xHis6, N-terminal, cleaved; NusA, N-terminal, cleaved
T2 sequence (looked up): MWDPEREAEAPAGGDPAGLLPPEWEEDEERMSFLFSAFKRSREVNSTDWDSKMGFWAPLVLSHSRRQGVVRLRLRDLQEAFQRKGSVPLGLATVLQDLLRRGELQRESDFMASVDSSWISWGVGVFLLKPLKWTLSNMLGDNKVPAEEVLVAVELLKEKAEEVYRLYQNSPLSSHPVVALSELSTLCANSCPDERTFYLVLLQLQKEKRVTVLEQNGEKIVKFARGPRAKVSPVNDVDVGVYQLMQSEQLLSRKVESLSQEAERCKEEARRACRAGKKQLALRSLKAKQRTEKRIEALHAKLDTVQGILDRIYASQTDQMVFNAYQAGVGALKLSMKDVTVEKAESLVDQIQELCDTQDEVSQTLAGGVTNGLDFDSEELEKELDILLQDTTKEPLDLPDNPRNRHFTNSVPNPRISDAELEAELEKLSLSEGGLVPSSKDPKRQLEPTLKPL

[3] = molecular target: T3, recombinant CHMP7 S3E/S441E (human, UniProt Q8WUX9 1-453, S3E | S441E); experiment: as above
T3 construct: CHMP7, human, full length with phosphomimetic residues at Ser3 and Ser441; also called CHMP7 S3E/D441E (as printed once in the methods); source: E. coli BL21(DE3), purified (Ni-NTA, TEV cleavage, Superdex 200); not shown: 2xHis6, N-terminal, cleaved; NusA, N-terminal, cleaved
T3 sequence (looked up): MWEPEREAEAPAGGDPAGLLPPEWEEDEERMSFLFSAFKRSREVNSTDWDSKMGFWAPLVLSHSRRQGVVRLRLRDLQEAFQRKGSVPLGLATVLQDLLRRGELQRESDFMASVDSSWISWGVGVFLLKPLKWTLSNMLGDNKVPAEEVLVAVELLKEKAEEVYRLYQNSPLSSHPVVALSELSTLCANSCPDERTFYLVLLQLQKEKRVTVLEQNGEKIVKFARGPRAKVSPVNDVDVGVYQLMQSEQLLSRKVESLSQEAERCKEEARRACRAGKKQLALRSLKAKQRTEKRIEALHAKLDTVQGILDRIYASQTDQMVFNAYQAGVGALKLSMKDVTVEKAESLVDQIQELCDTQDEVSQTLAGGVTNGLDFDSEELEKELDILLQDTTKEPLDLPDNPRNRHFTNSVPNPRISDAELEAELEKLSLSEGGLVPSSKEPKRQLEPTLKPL

[4] = molecular target: T4, CDK1-phosphorylated CHMP7 (human, UniProt Q8WUX9 1-453, phosphoserine at Ser3 and Ser441 (CDK1 sites named by the paper)); experiment: co-IP; CHMP7 pre-incubated with CDK1:CyclinB1 with or without 3 mM ATP, then 5 μM CHMP7 with 10 μM HA-LEM2^CT dialysed overnight at 4°C from HiSalt (250 mM KCl) into LoSalt buffer (30 mM HEPES pH 8, 25 mM KCl, 1 mM DTT); CHMP7 captured on anti-CHMP7 Dynabeads
T4 construct: CHMP7, human, full-length open reading frame, phosphorylated in vitro by CDK1:CyclinB1; also called recombinant CHMP7 incubated with CDK1 and CCNB1 in the presence of ATP; source: E. coli BL21(DE3), purified; phosphorylated in vitro with bought CDK1:CyclinB1 complex (Millipore) and 3 mM ATP; not shown: 2xHis6, N-terminal, cleaved; NusA, N-terminal, cleaved
T4 sequence (looked up): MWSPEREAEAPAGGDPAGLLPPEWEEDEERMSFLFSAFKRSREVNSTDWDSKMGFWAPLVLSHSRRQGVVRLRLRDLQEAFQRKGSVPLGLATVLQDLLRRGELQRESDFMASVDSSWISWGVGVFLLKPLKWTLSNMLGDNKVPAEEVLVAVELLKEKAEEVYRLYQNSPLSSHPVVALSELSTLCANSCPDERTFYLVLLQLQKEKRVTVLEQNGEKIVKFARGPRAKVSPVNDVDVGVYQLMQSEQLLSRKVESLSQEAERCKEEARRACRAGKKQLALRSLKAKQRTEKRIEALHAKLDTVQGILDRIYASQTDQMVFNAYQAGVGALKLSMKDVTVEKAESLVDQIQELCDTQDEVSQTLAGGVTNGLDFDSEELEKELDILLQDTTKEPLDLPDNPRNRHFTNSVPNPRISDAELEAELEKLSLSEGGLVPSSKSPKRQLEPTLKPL

Measured: binding result

B1: recombinant HA-LEM2^CT (LEM2 C-terminal domain 395-503) (domain or fragment, human, UniProt Q8NC56 395-503, looked up)
chain: ILLKYRWRKLEEEEQAMYEMVKKIIDVVQDHYVDWEQDMERYPYVGILHVRDSLIPPQSRRRMKRVWDRAVEFLASNESRIQTESHRVAGEDMLVWRWTKPSSFSDSER
notes: LEM2 (LEMD2), human, codon-optimised synthetic gene, C-terminal domain residues 395-503; also called LEM2's C-terminus; source: E. coli BL21(DE3), purified (Ni-NTA, on-bead TEV cleavage); not shown: 2xHis6, N-terminal, cleaved; NusA, N-terminal, cleaved; HA, N-terminal, kept
binds: [1] | [2] | [3] | [4]
